Laboratory results as given in paper PMC8664259.

T1: TAF7 (WT) (UniProt Q15545 1-349)
T1 sequence: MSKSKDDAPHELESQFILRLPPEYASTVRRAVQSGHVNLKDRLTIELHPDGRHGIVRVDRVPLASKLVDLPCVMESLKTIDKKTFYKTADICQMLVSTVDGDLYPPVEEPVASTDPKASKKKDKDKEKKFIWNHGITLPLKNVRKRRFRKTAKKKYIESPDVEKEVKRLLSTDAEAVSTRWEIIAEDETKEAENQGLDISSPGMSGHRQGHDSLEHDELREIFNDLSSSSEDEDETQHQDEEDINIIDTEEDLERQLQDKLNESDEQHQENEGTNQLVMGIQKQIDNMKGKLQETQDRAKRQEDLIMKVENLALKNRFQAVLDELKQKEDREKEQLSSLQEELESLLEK


Molecular target: T1, TAF7 (WT)
Test: EMSA

| Binder | binding result |
| --- | --- |
| GGCAGAUCUGAGCCUGGGAGCUCUCUGCC (structured_RNA) [HIV-1 TAR RNA] | binds |
| GGCAGAAAGGAGCAUUGGAGCUCUCUGCC (structured_RNA) [TARmut RNA] | no binding |
